Data reported in the supplement of paper PMC5998384.

How the values were obtained:
HeLa Kyoto [1] = experiment: solubility in G1/S (NP-40 vs SDS abundance) (log2 ratio); higher = more soluble; conditions: cell cycle stage: G1/S
HeLa Kyoto [2] = experiment: solubility change mitosis vs G1/S (difference of NP-40 vs SDS log2 ratios) (log2 ratio difference); higher = more soluble in mitosis
HeLa Kyoto [3] = experiment: thermal stability score vs G1/S (z-score of summed log2 fold changes over temperatures); higher = more thermally stable than in G1/S
[4] = cell cycle stage: early G1 (4.5 h after nocodazole release)
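Throughout, for solubility change mitosis vs G1/S (difference of NP-40 vs SDS log2 ratios): synchronized HeLa Kyoto cells (double thymidine block for G1/S, nocodazole release for mitosis), protein amounts in NP-40 versus SDS lysates quantified by mass spectrometry, three biological replicates.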
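Throughout, for solubility in G1/S (NP-40 vs SDS abundance): HeLa Kyoto cells arrested at G1/S by double thymidine block, proteins quantified by TMT10plex mass spectrometry in mild NP-40 versus SDS extracts, three biological replicates.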
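Throughout, for thermal stability score vs G1/S (z-score of summed log2 fold changes over temperatures): synchronized HeLa Kyoto cells, proteins quantified by TMT10plex mass spectrometry, three biological replicates, mitosis taken 0.5 h after nocodazole release, G1/S directly after double thymidine block.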

Substance | solubility in G1/S (log2) (HeLa Kyoto [1]) | solubility change mitosis (log2) (HeLa Kyoto [2]) | thermal stability score (HeLa Kyoto [3]; [4]) | thermal stability score (HeLa Kyoto [3]; cell cycle stage: mitosis)
MAAVELEWIPETLYNTAISAVVDNYIRSRRDIRSLPENIQFDVYYKLYQQGRLCQLGSEFCELEVFAKVLRALDKRHLLHHCFQALMDHGVKVASVLAYSFSRRCSYIAESDAAVKEKAIQVGFVLGGFLSDAGWYSDAEKVFLSCLQLCTLHDEMLHWFRAVECCVRLLHVRNGNCKYHLGEETFKLAQTYMDKLSKHGQQANKAALYGELCALLFAKSHYDEAYKWCIEAMKEITAGLPVKVVVDVLRQASKACVVKREFKKAEQLIKHAVYLARDHFGSKHPKYSDTLLDYGFYLLNVDNICQSVAIYQAALDIRQSVFGGKNIHVATAHEDLAYSSYVHQYSSGKFDNALFHAERAIGIITHILPEDHLLLASSKRVKALILEEIAIDCHNKETEQRLLQEAHDLHLSSLQLAKKAFGEFNVQTAKHYGNLGRLYQSMRKFKEAEEMHIKAIQIKEQLLGQEDYEVALSVGHLASLYNYDMNQYENAEKLYLRSIAIGKKLFGEGYSGLEYDYRGLIKLYNSIGNYEKVFEYHNVLSNWNRLRDRQYSVTDALEDVSTSPQSTEEVVQSFLISQNVEGPSC [APPBP2] | -0.17 | -0.168 | -0.105 | -0.0209
MDAWVRFSAQSQARERLCRAAQYACSLLGHALQRHGASPELQKQIRQLESHLSLGRKLLRLGNSADALESAKRAVHLSDVVLRFCITVSHLNRALYFACDNVLWAGKSGLAPRVDQEKWAQRSFRYYLFSLIMNLSRDAYEIRLLMEQESSACSRRLKGSGGGVPGGSETGGLGGPGTPGGGLPQLALKLRLQVLLLARVLRGHPPLLLDVVRNACDLFIPLDKLGLWRCGPGIVGLCGLVSSILSILTLIYPWLRLKP [PEX11B] | -0.779 | 0.18 | 0.106 | 0.142
UBR3 | -0.174 | -0.171 | -0.103 | -0.24
MSQGSPGDWAPLDPTPGPPASPNPFVHELHLSRLQRVKFCLLGALLAPIRVLLAFIVLFLLWPFAWLQVAGLSEEQLQEPITGWRKTVCHNGVLGLSRLLFFLLGFLRIRVRGQRASRLQAPVLVAAPHSTFFDPIVLLPCDLPKVVSRAENLSVPVIGALLRFNQAILVSRHDPASRRRVVEEVRRRATSGGKWPQVLFFPEGTCSNKKALLKFKPGAFIAGVPVQPVLIRYPNSLDTTSWAWRGPGVLKVLWLTASQPCSIVDVEFLPVYHPSPEESRDPTLYANNVQRVMAQALGIPATECEFVGSLPVIVVGRLKVALEPQLWELGKVLRKAGLSAGYVDAGAEPGRSRMISQEEFARQLQLSDPQTVAGAFGYFQQDTKGLVDFRDVALALAALDGGRSLEELTRLAFELFAEEQAEGPNRLLYKDGFSTILHLLLGSPHPAATALHAELCQAGSSQGLSLCQFQNFSLHDPLYGKLFSTYLRPPHTSRGTSQTPNASSPGNPTALANGTVQAPKQKGD [LPCAT4] | -0.0461 | -0.122 | 0.358 | 0.234
MAGSYPEGAPAVLADKRQQFGSRFLRDPARVFHHNAWDNVEWSEEQAAAAERKVQENSIQRVCQEKQVDYEINAHKYWNDFYKIHENGFFKDRHWLFTEFPELAPSQNQNHLKDWFLENKSEVPECRNNEDGPGLIMEEQHKCSSKSLEHKTQTLPVEENVTQKISDLEICADEFPGSSATYRILEVGCGVGNTVFPILQTNNDPGLFVYCCDFSSTAIELVQTNSEYDPSRCFAFVHDLCDEEKSYPVPKGSLDIIILIFVLSAIVPDKMQKAINRLSRLLKPGGMMLLRDYGRYDMAQLRFKKGQCLSGNFYVRGDGTRVYFFTQEELDTLFTTAGLEKVQNLVDRRLQVNRGKQLTMYRVWIQCKYCKPLLSSTS [METTL2A] | 0.185 | 0.0978 | 0.497 | 0.608
MAKAAASSSLEDLDLSGEEVQRLTSAFQDPEFRRMFSQYAEELTDPENRRRYEAEITALERERGVEVRFVHPEPGHVLRTSLDGARRCFVNVCSNALVGAPSSRPGSGGDRGAAPGSHWSLPYSLAPGREYAGRSSSRYMVYDVVFHPDALALARRHEGFRQMLDATALEAVEKQFGVKLDRRNAKTLKAKYKGTPEAAVLRTPLPGVIPARPDGEPKGPLPDFPYPYQYPAAPGPRAPSPPEAALQPAPTEPRYSVVQRHHVDLQDYRCSRDSAPSPVPHELVITIELPLLRSAEQAALEVTRKLLCLDSRKPDYRLRLSLPYPVDDGRGKAQFNKARRQLVVTLPVVLPAARREPAVAVAAAAPEESADRSGTDGQACASAREGEAGPARSRAEDGGHDTCVAGAAGSGVTTLGDPEVAPPPAAAGEERVPKPGEQDLSRHAGSPPGSVEEPSPGGENSPGGGGSPCLSSRSLAWGSSAGRESARGDSSVETREESEGTGGQRSACAMGGPGTKSGEPLCPPLLCNQDKETLTLLIQVPRIQPQSLQGDLNPLWYKLRFSAQDLVYSFFLQFAPENKLSTTEPVISISSNNAVIELAKSPESHGHWREWYYGVNNDSLEERLFVNEENVNEFLEEVLSSPFKQSMSLTPPLIEVLQVTDNKIQINAKLQECSNSDQLQGKEERVNEESHLTEKEYIEHCNTPTTDSDSSIAVKALQIDSFGLVTCFQQESLDVSQMILGKSQQPESKMQSEFIKEKSATCSNEEKDNLNESVITEEKETDGDHLSSLLNKTTVHNIPGFDSIKETNMQDGSVQVIKDHVTNCAFSFQNSLLYDLD [DNAAF2] | -0.0763 | 0.11 | -0.286 | -0.17
